Data on 53 molecules can be found in patent US20180291083A1 (IMMATICS BIOTECHNOLOGIES, published 2018).

For experiment [1], the target named is T1, human recombinant HLA-B*08:01 with b2m (human).
T1 construct: Peptide-receptive MHC class I used in the pMHC stability assay by ImmunAware; also called MHC heavy chain and b2m
Description: pMHC stability assay at 37 C, mean half-life of b2m on heavy chain, grade (T1/2 >2 h = +; >4 h = ++; >6 h = +++; >10 h = ++++). On the procedure:
The peptide-MHC stability for HLA-B*08:01 peptides was performed by ImmunAware (Copenhagen, Denmark). The data were obtained using a proximity based, homogenous, real-time assay to measure the dissociation of peptides from HLA class I molecules. First human recombinant HLA-B*08:01 and b2m were expressed in E. coli and purified in a series of liquid chromatography based steps (Ferre et al., 2003; Ostergaard et al., 2001). Afterwards, the stability of a peptide-MHC complex (pMHC) can be determined by measuring the amount of b2m associated with the MHC heavy chain over time at 37° C. (Harndahl et al., 2012). The stability of each pMHC, expressed as the half life of b2m associated with the respective heavy chain, was calculated by fitting the data to a one-phase dissociation equation.

Experiment [2] concerns the target T2, HLA-A*24:02 (human).
T2 construct: Peptide-receptive MHC class I monomer made by UV cleavage of a UV-sensitive ligand
Briefly: UV ligand exchange ELISA; exchange yield grade. A digest of the protocol:
(§1)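 Peptide–MHC complexes formed by UV-ligand exchange, in which a UV-cleavable peptide is replaced by the test peptide. Exchange yield measured by ELISA detecting β2m of stabilised complexes captured on streptavidin, against refolded HLA-A*02:01/MLA-001 monomer standards (15-500 ng/ml); samples diluted 100-fold.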

The target of experiment [3] is T3, HLA-A*02:01 (human).
T3 construct: Peptide-receptive MHC class I monomer made by UV cleavage of a UV-sensitive ligand
Briefly: UV ligand exchange ELISA; exchange yield grade. A digest of the protocol: as §1
For orientation: In an ELISA, binding on a coated surface is turned into a signal by an enzyme label.

B1: peptide DLRTKEVVF (SEQ ID NO: 119) (peptide)
peptide: DLRTKEVVF
notes: synthetic peptide; also called SIPA1L3 peptide
As for B1, in experiment [1], the “mean half-life (T1/2) of peptide-MHC complex” value (shortened to “mean half-life”) lay within 4 to 6 h.

B2: peptide LGHVRYVL (SEQ ID NO: 109) (peptide)
peptide: LGHVRYVL
notes: synthetic peptide; also called AGPAT5 peptide
Regarding B2, in experiment [1], the “mean half-life” value fell in the range of 2 to 4 h.
Molecule KYSSGFRNI had a peptide exchange yield in experiment [2] of 50 to 75%.
Consider VFLPSEGFNF, for which, in experiment [2], the peptide exchange yield fell in the range of 50 to 75%.
On to SLFEGIYTI, for which the peptide exchange yield in experiment [3] is more than 75%.
The molecule IFVARLYYF displayed a peptide exchange yield in experiment [2] of more than 75%.
Take SLYVQQLKI: the peptide exchange yield in experiment [3] is more than 75%.

B3: peptide RPKKVNTL (SEQ ID NO: 121) (peptide)
peptide: RPKKVNTL
notes: synthetic peptide; also called ZBTB24 peptide
For B3, in experiment [1], the “mean half-life” value is 2 to 4 h.
In experiment [2], TYVENLRLL yielded a peptide exchange yield of 50 to 75%.
In the case of KLSDNILKL, in experiment [3], the peptide exchange yield was more than 75%.
In experiment [2], EYNTIKDKF returned a peptide exchange yield of 50 to 75%.
Molecule IYFSNTHFF showed a peptide exchange yield in experiment [2] of 50 to 75%.
Still for that read-out and setting: then SYADNILSF, with more than 75%.
Regarding KLGPVAVSI, the peptide exchange yield in experiment [3] was more than 75%.

B4: peptide FGLARIYSF (SEQ ID NO: 110) (peptide)
peptide: FGLARIYSF
notes: synthetic peptide; also called CDK6 peptide
With B4, the “mean half-life” value in experiment [1] is 2 to 4 h.

B5: peptide ILAIRQNAL (SEQ ID NO: 108) (peptide)
peptide: ILAIRQNAL
notes: as for B2
B5: the “mean half-life” value in experiment [1] lay in the range of 4 to 6 h.
YYLSHLERI registered a peptide exchange yield in experiment [2] of more than 75%.
Take FLLPKVQSI: in experiment [3], the peptide exchange yield is more than 75%.
The molecule RFPPTPPLF returned a peptide exchange yield in experiment [2] of more than 75%.

B6: peptide VPPKKHLL (SEQ ID NO: 120) (peptide)
peptide: VPPKKHLL
notes: synthetic peptide; also called TRRAP peptide
In the case of B6, the “mean half-life” value in experiment [1] lay in the range of 2 to 4 h.
FLLPKVQSIQL registered a peptide exchange yield in experiment [3] of 50 to 75%.
In experiment [2], KYIEYYLVL showed a peptide exchange yield of more than 75%.
Same read-out and setting: as for LYQDRFDYL, the figure is more than 75%; as for RYLGKNWSF, more than 75%.

B7: peptide FEKEKKESL (SEQ ID NO: 118) (peptide)
peptide: FEKEKKESL
notes: synthetic peptide; also called SESN3 peptide
Regarding B7, the “mean half-life” value in experiment [1] is 6 to 10 h.
The molecule RFYLLTEHF came in with a peptide exchange yield in experiment [2] of 50 to 75%.
The same measure, in the same setting: then KYLADLPTL, with more than 75%.
YLLPSVVLL registered a peptide exchange yield in experiment [3] of more than 75%.

B8: peptide QAAQRTAL (SEQ ID NO: 107) (peptide)
peptide: QAAQRTAL
notes: synthetic peptide; also called AFF3 peptide
Turning to B8, in experiment [1], the “mean half-life” value was 4 to 6 h.
ILHAQTLKI showed a peptide exchange yield in experiment [3] of 50 to 75%.
For ILAAVETRL, the peptide exchange yield in experiment [3] was in the range of 50 to 75%.
Molecule RYLDEINLL came in with a peptide exchange yield in experiment [2] of 50 to 75%.
Consider FAFSGVLRA, for which, in experiment [3], the peptide exchange yield fell in the range of 20 to 50%.
Still for that read-out and setting: then RLIAKEMNI, with more than 75%.
The molecule IFKEHNFSF returned a peptide exchange yield in experiment [2] of more than 75%.

B9: peptide ELYQRIYAF (SEQ ID NO: 115) (peptide)
peptide: ELYQRIYAF
notes: synthetic peptide; also called PIK3R6 peptide
Take B9: in experiment [1], the “mean half-life” value is 4 to 6 h.

B10: peptide TLKIRAEVL (SEQ ID NO: 116) (peptide)
peptide: TLKIRAEVL
notes: synthetic peptide; also called RALGPS2 peptide
As for B10, the “mean half-life” value in experiment [1] was in the range of 6 to 10 h.
As for TYPQLEGFKF, the peptide exchange yield in experiment [2] was more than 75%.
Take SFQSKATVF: the peptide exchange yield in experiment [2] was in the range of 20 to 50%.
SLADVHIEV yielded a peptide exchange yield in experiment [3] of more than 75%.
Still for that read-out and setting: then FLINTNSEL, with more than 75%.

B11: peptide DANSRTSQL (SEQ ID NO: 113) (peptide)
peptide: DANSRTSQL
notes: synthetic peptide; also called MAP3K1 peptide
Consider B11, for which the “mean half-life” value in experiment [1] lay within 6 to 10 h.
In experiment [3], VMLQINPKL yielded a peptide exchange yield of 50 to 75%.

B12: peptide YIKTAKKL (SEQ ID NO: 117) (peptide)
peptide: YIKTAKKL
notes: as for B10
With B12, the “mean half-life” value in experiment [1] lay within 4 to 6 h.
The molecule FSLEDLVRI gave a peptide exchange yield in experiment [3] of 20 to 50%.
In experiment [3], FLFDKLLLI yielded a peptide exchange yield of more than 75%.
As for KLLGYDVHV, the peptide exchange yield in experiment [3] lay in the range of 50 to 75%.
Regarding YLNEKSLQL, the peptide exchange yield in experiment [3] was more than 75%.

B13: peptide HNALRILTF (SEQ ID NO: 114) (peptide)
peptide: HNALRILTF
notes: synthetic peptide; also called NUP210 peptide
Consider B13, for which the “mean half-life” value in experiment [1] was in the range of 4 to 6 h.
For the molecule SLMDLQERL, the peptide exchange yield in experiment [3] lay within 50 to 75%.
The same measure, in the same setting: then AMPDSPAEV, with more than 75%.
LYSDIGHLL gave a peptide exchange yield in experiment [2] of 50 to 75%.

B14: peptide APLLRHWEL (SEQ ID NO: 112) (peptide)
peptide: APLLRHWEL
notes: synthetic peptide; also called HLA-DOA peptide
Turning to B14, the “mean half-life” value in experiment [1] is 2 to 4 h.
